Reference: patent US20160185857A1 (SUPPREMOL, published 2016)

How the values were obtained:
[1] = target: T1, native FcγRIIA expressed on K562 cells (human, UniProt P12318 34-317); assay: flow cytometry on K562 cells
T1 construct: whole, on cells
T1 sequence (looked up): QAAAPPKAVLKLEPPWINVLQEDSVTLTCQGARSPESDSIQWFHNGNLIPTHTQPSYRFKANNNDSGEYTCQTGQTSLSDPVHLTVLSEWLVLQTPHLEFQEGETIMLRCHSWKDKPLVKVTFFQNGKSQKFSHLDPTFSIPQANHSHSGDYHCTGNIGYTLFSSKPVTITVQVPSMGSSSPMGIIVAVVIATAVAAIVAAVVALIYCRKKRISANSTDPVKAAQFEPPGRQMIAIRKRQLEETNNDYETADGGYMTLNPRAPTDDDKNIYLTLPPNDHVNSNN
Method: FIG. 5: Binding of 15 μg/ml antibody (hu8A6_VH+hu8A6_VL and ch8A6_N297A) to native FcγRIIA expressed on K562 cells.
Raji and K562 cells were incubated with increasing concentrations of humanized antibodies and the chimeric antibody as control. Raji cells were used to test binding on FcγRIIB (FIG. 4), K562 cells to analyze unspecific binding to FcγRIIA (FIG. 5). Cell bound antibodies were detected with PE-conjugated secondary antibody.

[2] = target: T2, recombinant soluble human FcγRIIB (human, UniProt P31994 43-217); assay: ELISA, sFcγRIIB coated on plates, hybridoma supernatant
T2 construct: also called sFcγRIIB
T2 sequence: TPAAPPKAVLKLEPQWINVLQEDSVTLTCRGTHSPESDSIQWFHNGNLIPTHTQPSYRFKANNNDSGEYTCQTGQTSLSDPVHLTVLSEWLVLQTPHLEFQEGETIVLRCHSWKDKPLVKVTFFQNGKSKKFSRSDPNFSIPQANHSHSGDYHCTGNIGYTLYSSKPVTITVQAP

[3] = target: T3, native FcγRIIB, membrane-bound, endogenously expressed on human cells (Raji, Daudi, PBMC) (human, UniProt P31994 43-310); assay: cell-based or functional assay
T3 sequence (looked up): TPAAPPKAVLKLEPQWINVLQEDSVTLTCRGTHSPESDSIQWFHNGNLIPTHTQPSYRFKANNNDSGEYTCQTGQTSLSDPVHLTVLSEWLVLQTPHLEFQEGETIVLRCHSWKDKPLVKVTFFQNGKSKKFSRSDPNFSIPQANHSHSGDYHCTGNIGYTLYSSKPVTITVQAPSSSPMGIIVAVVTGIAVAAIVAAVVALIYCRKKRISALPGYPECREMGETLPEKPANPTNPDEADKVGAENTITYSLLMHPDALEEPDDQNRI

B1: ch8A6_N297A (chimeric 8A6, rat variable regions, human IgG1 N297A constant region, human kappa) (antibody)
heavy: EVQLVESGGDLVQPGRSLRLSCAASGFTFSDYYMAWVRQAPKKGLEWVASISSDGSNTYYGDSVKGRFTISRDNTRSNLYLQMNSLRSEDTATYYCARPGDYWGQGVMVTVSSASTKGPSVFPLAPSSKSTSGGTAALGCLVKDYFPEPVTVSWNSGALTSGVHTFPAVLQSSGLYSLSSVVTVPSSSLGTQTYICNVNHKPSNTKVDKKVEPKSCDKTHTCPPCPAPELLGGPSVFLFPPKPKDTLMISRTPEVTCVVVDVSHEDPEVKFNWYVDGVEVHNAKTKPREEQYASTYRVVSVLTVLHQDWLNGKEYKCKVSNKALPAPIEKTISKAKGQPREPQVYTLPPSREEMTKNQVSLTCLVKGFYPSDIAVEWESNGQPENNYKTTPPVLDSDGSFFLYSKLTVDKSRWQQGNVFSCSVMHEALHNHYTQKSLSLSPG
light: NIVMTQSPTSMFISVGDRVTMNCKASQNVGTYVDWFQQKTGQSPTLLIFGASNRYTGVPDRFTGSGSGTDFTLSISNMQAEDLAVYYCLQYNYHPYTFGPGTTLELKRTVAAPSVFIFPPSDEQLKSGTASVVCLLNNFYPREAKVQWKVDNALQSGNSQESVTEQDSKDSTYSLSSTLTLSKADYEKHKVYACEVTHQGLSSPVTKSFNRGEC
notes: also called chimeric 8A6_N297A
binding result [1]: no binding (tested: 15 µg/ml)

B2: monoclonal antibody 8A6 (rat IgG2a) (antibody, V domains shown)
VH: EVQLVESGGDLVQPGRSLRLSCAASGFTFSDYYMAWVRQAPKKGLEWVASISSDGSNTYYGDSVKGRFTISRDNTRSNLYLQMNSLRSEDTATYYCARPGDYWGQGVMVTVSS
VL: NIVMTQSPTSMFISVGDRVTMNCKASQNVGTYVDWFQQKTGQSPTLLIFGASNRYTGVPDRFTGSGSGTDFTLSISNMQAEDLAVYYCLQYNYHPYTFGPGTTLELKR
notes: Rat IgG2a from hybridoma supernatant; also called mAb 8A6; rat antibody 8A6
binding result [2]: binds

B3: chGB3_N297A (chimeric GB3, prior art antibody of WO 2005/051999, N297A format) (antibody, V domains shown)
VH: VQLQQSGPELVKPGASVKISCKASGYTFTDYYIYWVKQWPGQGLEWIGWIFPGTGNTYYNENFKDKATLTIDRSSSTAYMLLGSLTSEDSAVYFCYGPFAYWGQ
VL: RIQLTQSPSSLSASLGERVSLTCRASQEISGYLSWLQQKPDGTIKRLIYATSALDSGVPKRFSGSGSGSNYSLTISSLESEDFADYYCLQYANYPYTFGGGTKL
maximum fold phospho-signal of the FcγRIIB ITIM against untreated cells, densitometry of Western blot, Daudi cells [3]: 2.8 fold
